Measured values published in publication PMC10127594.

What follows are substances tested against T1, Gac (Borrelia burgdorferi sensu stricto B31) (UniProt O51396) (assay: competition). Settings: EMSA: 50 mM Tris-HCl (pH not stated), 25 mM KCl, 10% glycerol, 0.01% Tween 20, 100 nM DTT, 1 mM PMSF; 15 min, room temperature; 10 nM probe, 25 nM Gac.
T1 sequence: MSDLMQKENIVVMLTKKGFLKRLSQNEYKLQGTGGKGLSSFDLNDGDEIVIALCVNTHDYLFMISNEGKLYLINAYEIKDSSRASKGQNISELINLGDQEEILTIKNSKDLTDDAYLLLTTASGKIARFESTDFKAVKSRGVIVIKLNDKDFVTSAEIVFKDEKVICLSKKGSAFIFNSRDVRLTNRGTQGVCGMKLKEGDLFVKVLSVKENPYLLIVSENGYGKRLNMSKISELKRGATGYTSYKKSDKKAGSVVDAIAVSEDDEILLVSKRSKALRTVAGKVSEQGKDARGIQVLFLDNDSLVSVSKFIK

Question: With “AACAGGCAAAAGGATTTGCCAAAGTCAGAAATT (double strand) [flaB competitor]” as the substance, how does the binding signal (fold reduction) read?
Answer: < 1.3

Question: For B31 ospC operator/promoter, which binding signal (fold reduction) is on record?
Answer: 2.6

Question: With empty pCR2.1 amplicon as the substance, how does the binding signal (fold reduction) read?
Answer: < 1.3

Question: With “GTATTAAGTTATATTAATATAAAAGGAGAATATATT (double strand) [ospAB competitor]” as the substance, how does the binding signal (fold reduction) read?
Answer: < 1.3

Question: With Ip89 ospC operator/promoter as the substance, how does the binding signal (fold reduction) read?
Answer: 2
